T1: human Nectin-4 (human, UniProt Q96NY8 32-349)
T1 construct: a Gly32-Ser349 FLAG construct is described only under the SPR assay; also called PVRL4
T1 sequence (looked up): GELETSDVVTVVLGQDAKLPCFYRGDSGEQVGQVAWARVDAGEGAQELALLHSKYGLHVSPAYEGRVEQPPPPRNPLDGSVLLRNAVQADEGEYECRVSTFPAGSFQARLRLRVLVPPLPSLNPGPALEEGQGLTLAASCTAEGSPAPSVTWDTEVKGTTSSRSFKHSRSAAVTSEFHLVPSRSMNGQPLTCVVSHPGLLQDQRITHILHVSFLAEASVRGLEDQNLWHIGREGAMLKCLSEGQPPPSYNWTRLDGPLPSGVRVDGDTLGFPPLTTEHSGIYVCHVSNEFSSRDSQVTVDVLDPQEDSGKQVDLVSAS

*1 amine or outer side, *2 acyl side, *3 side chain or, on linkers, in order; H or OH if unused. Bridges are numbered along the chain shown (N, C = ends). Where no end group is shown, it is not given here. [ ]: non-standard residue; d: D form. TATA = O=C(CC[*:1])N1CN(C(=O)CC[*:2])CN(C(=O)CC[*:3])C1; hArg = N=C(N)NCCCC[C@H](N)C(=O)O; 2Pal = N[C@@H](Cc1ccccn1)C(=O)O; Aze = O=C(O)[C@@H]1CCN1; βAla = NCCC(=O)O; Sar = CNCC(=O)O

As a reminder, the Ki is a dissociation constant, usually derived from enzyme kinetics or from competition with a known ligand. The low end stands for a stronger hold on the target, the high end for a looser hold on the target.

For the test, the target named is T1, human Nectin-4. Kind of test: FP competition, tracer SEQ ID NO 217. As to the method: Peptides were diluted to an appropriate concentration in assay buffer as described in the direct binding assay with a maximum of 5% DMSO, then serially diluted 1 in 2. […] Measurements were conducted as for the direct binding assay, however the gain was determined prior to the first measurement. Data analysis was in Systat Sigmaplot version 12.0 where the mP values were fit to a user defined cubic equation to generate a Ki value: […]
As to [βAla][Sar][Sar][Sar][Sar][Sar]CPF[dD]CM[hArg]NWSWPIWC (linker 7-11-21 via TATA) [BCY7556], the affinity corresponds to a Ki of 26.1 nM.
Under Ac-CPF[dD]CM[hArg]KWSTPIWC (linker 1-5-15 via TATA) [BCY7822] stands 27 nM.
In turn, Ac-CPF[dD]CK[hArg]NWSTPIWC (linker 1-5-15 via TATA) [BCY7821] had a Ki of 84 nM.
The figure for Ac-CPF[dD]CM[hArg]NWSTPKWC (linker 1-5-15 via TATA) [BCY8085] is 15.1 nM.
Ac-CPF[dD]CL[hArg]NWSTPPWC (linker 1-5-15 via TATA) [BCY8038] gave a Ki of 8 nM.
In turn, [βAla][Sar][Sar][Sar][Sar][Sar]CPF[dA]CM[hArg]NWSWPIWC (linker 7-11-21 via TATA) [BCY7557] came in with a Ki of 22.5 nM.
Take Ac-CPF[dD]CL[hArg]NWSTPIWC (linker 1-5-15 via TATA) [BCY8039]: the inhibitory constant (Ki) was 21.4 nM.
{Ac-βAla}-[Sar][Sar][Sar][Sar][Sar]CPF[dD]CM[hArg]NWSWPIWC (linker 6-10-20 via TATA) [BCY7558] came in with a Ki of 21.9 nM.
{Ac-βAla}-[Sar][Sar][Sar][Sar][Sar]CPF[dA]CM[hArg]NWSWPIWC (linker 6-10-20 via TATA) [BCY7559]: the Ki worked out at 17 nM.
Molecule Ac-CPY[dD]CM[hArg]NWSTPIWC (linker 1-5-15 via TATA) [BCY8040] showed a Ki of 10.8 nM.
In turn, Ac-CPF[dD]CM[hArg]NWSTPPWC (linker 1-5-15 via TATA) [BCY8036] showed a Ki of 7.5 nM.
Ac-C[Aze]FGCMKNWSWPIWC (linker 1-5-15 via TATA) [BCY7608] had an inhibition constant Ki of 42 nM.
The figure for Ac-CPFGCMKNWSWPIWC (linker 1-5-15 via TATA, also called 80-09-02-N008) [BCY7390] is 17.1 nM.
Under Ac-CPFGCMKDWSWPIWC (linker 1-5-15 via TATA, also called 80-09-02-N050) [BCY7661] stands 29.4 nM; under Ac-CPFGCMKNWSDPIWC (linker 1-5-15 via TATA, also called 80-09-02-N022) [BCY7540], 357 nM; under Ac-CPFGCMPNWSWPIWC (linker 1-5-15 via TATA) [BCY7614], 21 nM.
The figure for Ac-CPFGCMSNWSWPIWC (linker 1-5-15 via TATA, also called 80-09-02-N047) [BCY7658] is 33.6 nM; for Ac-CGFGCMKNWSWPIWC (linker 1-5-15 via TATA) [BCY7607] it is 77 nM; for Ac-CPFGCMDNWSWPIWC (linker 1-5-15 via TATA, also called 80-09-02-N048) [BCY7659] it is 77.9 nM.
For the molecule Ac-CPFGCMKNWSFPIWC (linker 1-5-15 via TATA) [BCY7589], the affinity corresponds to a Ki of 34.5 nM.
Molecule Ac-CPFGCMKHWSWPIWC (linker 1-5-15 via TATA, also called 80-09-02-N051) [BCY7662] returned a Ki of 14.8 nM.
In the case of Ac-CPFGCMKNWSWPIYC (linker 1-5-15 via TATA) [BCY7597], the Ki came to 169 nM.
The molecule Ac-CPFGCMKNWSWPIFC (linker 1-5-15 via TATA) [BCY7596] came in with a Ki of 353 nM.
Consider Ac-CPFGCMKNWSYPIWC (linker 1-5-15 via TATA) [BCY7590], for which affinity was put at a Ki of 38.5 nM.
Under Ac-CPFGCMKNWSTPIWC (linker 1-5-15 via TATA, also called 80-09-02-N054) [BCY7665] stands 24.1 nM; under Ac-QKWCAPLSDYWCNRIC (linker 4-12-16 via TATA) [BCY7392], 27.2 nM; under Ac-QKWCAALSDYWCNRIC (linker 4-12-16 via TATA) [BCY7625], 141 nM.
The figure for Ac-QAWCAPLSDYWCNRIC (linker 4-12-16 via TATA) [BCY7623] is 21 nM.
The figure for Ac-QKWCAPLSDYWCNAIC (linker 4-12-16 via TATA) [BCY7632] is 123 nM; for Ac-QKACAPLSDYWCNRIC (linker 4-12-16 via TATA) [BCY7624] it is 571 nM.
Regarding Ac-QKWCAPLADYWCNRIC (linker 4-12-16 via TATA) [BCY7627], the Ki was found to be 101 nM.
The figure for Ac-AKWCAPLSDYWCNRIC (linker 4-12-16 via TATA) [BCY7622] is 31 nM.
Under Ac-QKWCAPLSDYWCARIC (linker 4-12-16 via TATA) [BCY7631] stands 19 nM.
In turn, ACPFGCMKNWSWPIWCA (linker 2-6-16 via TATA, also called 80-09-02-N002) [BCY428] came in with a Ki of 61 nM.
Under Ac-[dD]CPFGCMKNWSWPIWC (linker 2-6-16 via TATA) [BCY7606] stands 34 nM.
Under Ac-CP[2Pal]GCMKNWSWPIWC (linker 1-5-15 via TATA) [BCY7620] stands 246 nM; under Ac-CPFK(Ac)CMKNWSWPIWC (linker 1-5-15 via TATA) [BCY7611], 205 nM.

Values taken from patent publication US20210269480A1 (published 2021).
